In the PETadex activity labels (doi:10.1016/j.enzmictec.2020.109715):

What was measured:
BHET = conditions: pH 7; 40 °C; part of the chain shown
p-NP-C2 = conditions: pH 7; 40 °C; part of the chain shown
p-NP-C4 = conditions: pH 7; 40 °C; part of the chain shown
pNP-C8 [1] = assay: Proxy for plastic degradation [Relative activity]
PET = assay: Proxy for plastic degradation [Released monomer concentration (HPLC/LC-MS) (MHET+TPA+BHET)]; conditions: pH 8
pNP-C8 [2] = assay: Proxy for plastic degradation [p-nitrophenol (pNP) release] (% relative activity)

B1: unnamed (protein)
chain: QSNPYQRGPNPTRSALTTDGPFSVATYSVSRLSVSGFGGGVIYYPTGTTLTFGGIAMSPGYTADASSLAWLGRRLASHGFVVIVINTNSRLDFPDSRASQLSAALNYLRTSSPSAVRARLDANRLAVAGHSMGGGATLRISEQIPTLKAGVPLTPWHTDKTFNTPVPQLIVGAEADTVAPVSQHAIPFYQNLPSTTPKVYVELDNATHFAPNSPNAAISVYTISWMKLWVDNDTRYRQFLCNVNDPALSDFRSNNRHCQ
Km (BHET): 16800 µM
kcat (BHET): 7.3 s⁻¹
kcat/Km (BHET): 435 M⁻¹ s⁻¹
Km (p-NP-C2): 1150 µM
kcat (p-NP-C2): 131 s⁻¹
kcat/Km (p-NP-C2): 114000 M⁻¹ s⁻¹
Km (p-NP-C4): 300 µM
kcat (p-NP-C4): 53.9 s⁻¹
kcat/Km (p-NP-C4): 180000 M⁻¹ s⁻¹

B2: unnamed (protein)
chain: MNFPRASRLMQAAVLGGLMAVSAAATAQTNPYARGPNPTAASLEASAGPFTVRSFTVSRPSGYGAGTVYYPTNAGGTVGAIAIVPGYTARQSSIKWWGPRLASHGFVVITIDTNSTLDQPSSRSSQQMAALRQVASLNGTSSSPIYGKVDTARMGVMGWSMGGGGSLISAANNPSLKAAAPQAPWDSSTNFSSVTVPTLIFACENDSIAPVNSSALPIYDSMSRNAKQFLEINGGSHSCANSGNSNQALIGKKGVAWMKRFMDNDTRYSTFACENPNSTRVSDFRTANCSLEHHHHHH
Proxy for plastic degradation (pNP-C8 [1]; 5 °C): 100%
Proxy for plastic degradation (pNP-C8 [1]; 30 °C): 80%
Proxy for plastic degradation (pNP-C8 [1]; 35 °C): 100%
Proxy for plastic degradation (pNP-C8 [1]; pH 3): 10%
Proxy for plastic degradation (pNP-C8 [1]; pH 4): 20%
Proxy for plastic degradation (pNP-C8 [1]; pH 5): 65%
Proxy for plastic degradation (pNP-C8 [1]; pH 6): 95%
Proxy for plastic degradation (pNP-C8 [1]; pH 7): 98%
Proxy for plastic degradation (pNP-C8 [1]; pH 8): 100%
Proxy for plastic degradation (pNP-C8 [1]; pH 9): 95%
Proxy for plastic degradation (pNP-C8 [1]; pH 10): 70%
Proxy for plastic degradation (PET; 30 °C): 1.8 mM
Proxy for plastic degradation (PET; 40 °C): 2.2 mM
Proxy for plastic degradation (PET; 50 °C): 0.8 mM
Proxy for plastic degradation (PET; 60 °C): 0.4 mM
Proxy for plastic degradation (PET; 70 °C): 0.2 mM
Proxy for plastic degradation (PET; 80 °C): 0.1 mM

B3: unnamed (protein)
chain: MQVVLGRVRSAGLLAALLALAAWALVWASPSAEAQSNPYQRGPNPTRSALTTDGPFSVATYSVSRLSVSGFGGGVIYYPTGTTLTFGGIAMSPGYTADASSLAWLGRRLASHGFVVIVINTNSRLDFPDSRASQLSAALNYLRTSSPSAVRARLDANRLAVAGHSMGGGATLRISEQIPTLKAGVPLTPWHTDKTFNTPVPQLIVGAEADTVAPVSQHAIPFYQNLPSTTPKVYVELDNATHFAPNSPNAAISVYTISWMKLWVDNDTRYRQFLCNVNDPALSDFRSNNRHCQ
Proxy for plastic degradation (pNP-C8 [1]; 5 °C): 100%
Proxy for plastic degradation (pNP-C8 [1]; 30 °C): 20%
Proxy for plastic degradation (pNP-C8 [1]; 35 °C): 30%
Proxy for plastic degradation (pNP-C8 [1]; pH 3): 0%
Proxy for plastic degradation (pNP-C8 [1]; pH 4): 20%
Proxy for plastic degradation (pNP-C8 [1]; pH 5): 70%
Proxy for plastic degradation (pNP-C8 [1]; pH 6): 95%
Proxy for plastic degradation (pNP-C8 [1]; pH 7): 100%
Proxy for plastic degradation (pNP-C8 [1]; pH 8): 100%
Proxy for plastic degradation (pNP-C8 [1]; pH 9): 90%
Proxy for plastic degradation (pNP-C8 [1]; pH 10): 15%
Proxy for plastic degradation (pNP-C8 [2]; pH 3): 0
Proxy for plastic degradation (pNP-C8 [2]; pH 4): 17
Proxy for plastic degradation (pNP-C8 [2]; pH 5): 69
Proxy for plastic degradation (pNP-C8 [2]; pH 6): 94
Proxy for plastic degradation (pNP-C8 [2]; pH 7): 100
Proxy for plastic degradation (pNP-C8 [2]; pH 8): 100
Proxy for plastic degradation (pNP-C8 [2]; pH 8, 5 °C): 100
Proxy for plastic degradation (pNP-C8 [2]; pH 8, 30 °C): 21
Proxy for plastic degradation (pNP-C8 [2]; pH 8, 35 °C): 30
Proxy for plastic degradation (pNP-C8 [2]; pH 9): 88
Proxy for plastic degradation (pNP-C8 [2]; pH 10): 11
Proxy for plastic degradation (PET; 30 °C): 0 mM
Proxy for plastic degradation (PET; 40 °C): 0.2 mM
Proxy for plastic degradation (PET; 50 °C): 1.1 mM
Proxy for plastic degradation (PET; 60 °C): 3.8 mM
Proxy for plastic degradation (PET; 70 °C): 6.2 mM
Proxy for plastic degradation (PET; 80 °C): 4.9 mM

B4: unnamed (protein)
chain: SNPYQRGPNPTRSALTADGPFSVATYTVSRLSVSGFGGGVIYYPTGTSLTFGGIAMSPGYTADASSLAWLGRRLASHGFVVLVINTNSRFDYPDSRASQLSAALNYLRTSSPSAVRARLDANRLAVAGHSMGGGGTLRIAEQNPSLKAAVPLTPWHTDKTFNTSVPVLIVGAEADTVAPVSQHAIPFYQNLPSTTPKVYVELDNASHFAPNSNNAAISVYTISWMKLWVDNDTRYRQFLCNVNDPALSDFRTNNRHCQ
Proxy for plastic degradation (pNP-C8 [1]; 5 °C, part of the chain shown): 100%
Proxy for plastic degradation (pNP-C8 [1]; 30 °C, part of the chain shown): 35%
Proxy for plastic degradation (pNP-C8 [1]; 35 °C, part of the chain shown): 48%
Proxy for plastic degradation (pNP-C8 [1]; pH 3, part of the chain shown): 0%
Proxy for plastic degradation (pNP-C8 [1]; pH 4, part of the chain shown): 20%
Proxy for plastic degradation (pNP-C8 [1]; pH 5, part of the chain shown): 70%
Proxy for plastic degradation (pNP-C8 [1]; pH 6, part of the chain shown): 100%
Proxy for plastic degradation (pNP-C8 [1]; pH 7, part of the chain shown): 100%
Proxy for plastic degradation (pNP-C8 [1]; pH 8, part of the chain shown): 90%
Proxy for plastic degradation (pNP-C8 [1]; pH 9, part of the chain shown): 55%
Proxy for plastic degradation (pNP-C8 [1]; pH 10, part of the chain shown): 0%
Proxy for plastic degradation (PET; 30 °C, part of the chain shown): 0 mM
Proxy for plastic degradation (PET; 40 °C, part of the chain shown): 0.4 mM
Proxy for plastic degradation (PET; 50 °C, part of the chain shown): 1.5 mM
Proxy for plastic degradation (PET; 60 °C, part of the chain shown): 3.8 mM
Proxy for plastic degradation (PET; 70 °C, part of the chain shown): 5.8 mM
Proxy for plastic degradation (PET; 80 °C, part of the chain shown): 4 mM

B5: unnamed (protein)
chain: MDGVLWRVRTAALMAALLALAAWALVWASPSVEAQSNPYQRGPNPTRSALTADGPFSVATYTVSRLSVSGFGGGVIYYPTGTSLTFGGIAMSPGYTADASSLAWLGRRLASHGFVVLVINTNSRFDYPDSRASQLSAALNYLRTSSPSAVRARLDANRLAVAGHSMGGGGTLRIAEQNPSLKAAVPLTPWHTDKTFNTSVPVLIVGAEADTVAPVSQHAIPFYQNLPSTTPKVYVELDNASHFAPNSNNAAISVYTISWMKLWVDNDTRYRQFLCNVNDPALSDFRTNNRHCQ
Proxy for plastic degradation (pNP-C8 [2]; pH 3): 0
Proxy for plastic degradation (pNP-C8 [2]; pH 4): 17
Proxy for plastic degradation (pNP-C8 [2]; pH 5): 69
Proxy for plastic degradation (pNP-C8 [2]; pH 6): 100
Proxy for plastic degradation (pNP-C8 [2]; pH 7): 100
Proxy for plastic degradation (pNP-C8 [2]; pH 8): 89
Proxy for plastic degradation (pNP-C8 [2]; pH 8, 5 °C): 100
Proxy for plastic degradation (pNP-C8 [2]; pH 8, 30 °C): 32
Proxy for plastic degradation (pNP-C8 [2]; pH 8, 35 °C): 47
Proxy for plastic degradation (pNP-C8 [2]; pH 9): 54
Proxy for plastic degradation (pNP-C8 [2]; pH 10): 0

B6: unnamed (protein)
chain: MNFPRASRLMQAAVLGGLMAVSAAATAQTNPYARGPNPTAASLEASAGPFTVRSFTVSRPSGYGAGTVYYPTNAGGTVGAIAIVPGYTARQSSIKWWGPRLASHGFVVITIDTNSTLDQPSSRSSQQMAALRQVASLNGTSSSPIYGKVDTARMGVMGWSMGGGGSLISAANNPSLKAAAPQAPWDSSTNFSSVTVPTLIFACENDSIAPVNSSALPIYDSMSRNAKQFLEINGGSHSCANSGNSNQALIGKKGVAWMKRFMDNDTRYSTFACENPNSTRVSDFRTANCS
Proxy for plastic degradation (pNP-C8 [2]; pH 3, part of the chain shown): 10
Proxy for plastic degradation (pNP-C8 [2]; pH 4, part of the chain shown): 17
Proxy for plastic degradation (pNP-C8 [2]; pH 5, part of the chain shown): 62
Proxy for plastic degradation (pNP-C8 [2]; pH 6, part of the chain shown): 94
Proxy for plastic degradation (pNP-C8 [2]; pH 7, part of the chain shown): 98
Proxy for plastic degradation (pNP-C8 [2]; pH 8, 5 °C, part of the chain shown): 100
Proxy for plastic degradation (pNP-C8 [2]; pH 8, 30 °C, part of the chain shown): 80
Proxy for plastic degradation (pNP-C8 [2]; pH 8, 35 °C, part of the chain shown): 100
Proxy for plastic degradation (pNP-C8 [2]; pH 8, part of the chain shown): 100
Proxy for plastic degradation (pNP-C8 [2]; pH 9, part of the chain shown): 96
Proxy for plastic degradation (pNP-C8 [2]; pH 10, part of the chain shown): 69
